# US20250152746A1, “BASE EDITING OF ANGPTL3 AND METHODS OF USING SAME FOR TREATMENT OF DISEASE” (Verve Therapeutics, Inc., priority 2020, published 2025)
# In the oligonucleotide strings, read from the 5' end, every base follows the letter of its sugar. An asterisk marks phosphorothioate; unmarked linkages are phosphodiester. Other units and linkages are bracketed, terminal groups are in braces. A string of capitals states the bases alone. m = 2'-O-methyl; r = 2'-OH (RNA)
# Legend:
# PCSK9 gene [1] = test: PCSK9 gRNA/SpCas9 editing in primary human hepatocytes (Tables 2, 4); assay type: cell-based; conditions: SpCas9 mRNA MS002 1:1 by weight; for Human Primary Hepatocyte Editing % 100: 100 ng/RNA/mL; for Human Primary Hepatocyte Editing % 500: 500 ng/RNA/mL; for Human Primary Hepatocyte Editing % 2500: 2500 ng/RNA/mL
# How it was run: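 Editing at the PCSK9 site quantified by NGS of PCR amplicons from genomic DNA. Input: SpCas9 mRNA with gRNA, 1:1 by weight, transfected into primary human hepatocytes at 2500, 500 or 100 ng RNA/mL (tracr-modified guides at 2500, 1250, 500, 250 ng/mL).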
# PCSK9 gene [2] = test: PCSK9 gRNA/SpCas9 editing in primary cynomolgus hepatocytes (Tables 2, 22); assay type: cell-based, cynomolgus monkey; conditions: SpCas9 mRNA MS002 1:1 by weight; for Cyno Primary Hepatocyte Editing % 100: 100 ng/RNA/mL; for Cyno Primary Hepatocyte Editing % 500: 500 ng/RNA/mL; for Cyno Primary Hepatocyte Editing % 2500: 2500 ng/RNA/mL
Molecule,Human Primary Hepatocyte Editing % 100 (PCSK9 gene [1]),Human Primary Hepatocyte Editing % 500 (PCSK9 gene [1]),Human Primary Hepatocyte Editing % 2500 (PCSK9 gene [1]),Cyno Primary Hepatocyte Editing % 100 (PCSK9 gene [2]),Cyno Primary Hepatocyte Editing % 500 (PCSK9 gene [2]),Cyno Primary Hepatocyte Editing % 2500 (PCSK9 gene [2])
"GA165: PCSK9 gRNA; protospacer CCGTCAGCTCCAGGCGGTCC (SEQ ID NO: 159) (nucleic acid, sugars from the 5' end m3 r94 m3, linkages s3 o93 s3 (s phosphorothioate, o phosphodiester), T or U not given here) guide: CCGUCAGCUCCAGGCGGUCCGUUUUAGAGCUAGAAAUAGCAAGUUAAAAUAAGGCUAGUCCGUUAUCAACUUGAAAAAGUGGCACCGAGUCGGUGCUUUU",4.99%,22.3%,40.27%,5.43%,18.00%,35.57%
"GA241: PCSK9 gRNA; protospacer TGCTGCTGCCCCTGGCGGGT (SEQ ID NO: 234) (nucleic acid, sugars from the 5' end m3 r94 m3, linkages s3 o93 s3 (s phosphorothioate, o phosphodiester), T or U not given here) guide: UGCUGCUGCCCCUGGCGGGUGUUUUAGAGCUAGAAAUAGCAAGUUAAAAUAAGGCUAGUCCGUUAUCAACUUGAAAAAGUGGCACCGAGUCGGUGCUUUU",0.61%,1.49%,5.39%,0.97%,2.94%,16.11%
"GA166: PCSK9 gRNA; protospacer CGCCCGTGCGCAGGAGGACG (SEQ ID NO: 160) (nucleic acid, sugars from the 5' end m3 r94 m3, linkages s3 o93 s3 (s phosphorothioate, o phosphodiester), T or U not given here) guide: CGCCCGUGCGCAGGAGGACGGUUUUAGAGCUAGAAAUAGCAAGUUAAAAUAAGGCUAGUCCGUUAUCAACUUGAAAAAGUGGCACCGAGUCGGUGCUUUU",2.89%,10.99%,36.89%,3.93%,14.39%,44.77%
GA162: PCSK9 gRNA; protospacer GGACGGCGACTACGAGGAGC (SEQ ID NO: 156) (nucleic acid) guide: mG*mG*mA*rCrGrGrCrGrArCrUrArCrGrArGrGrArGrCrGrUrUrUrUrArGrArGrCrUrArGrArArArUrArGrCrArArGrUrUrArArArArUrArArGrGrCrUrArGrUrCrCrGrUrUrArUrCrArArCrUrUrGrArArArArArGrUrGrGrCrArCrCrGrArGrUrCrGrGrUrGrCrU*mU*mU*mU,2.14%,12.97%,42.8%,1.62%,11.18%,28.26%
"GA246: PCSK9 gRNA; protospacer GCCAGCGCCTGGCGAGGGCT (SEQ ID NO: 239) (nucleic acid, sugars from the 5' end m3 r94 m3, linkages s3 o93 s3 (s phosphorothioate, o phosphodiester), T or U not given here) guide: GCCAGCGCCUGGCGAGGGCUGUUUUAGAGCUAGAAAUAGCAAGUUAAAAUAAGGCUAGUCCGUUAUCAACUUGAAAAAGUGGCACCGAGUCGGUGCUUUU",0.08%,2.17%,17.95%,1.11%,5.78%,24.63%
"GA239: PCSK9 gRNA; protospacer CCGCCTGCCAGCGCCTGGCG (SEQ ID NO: 232) (nucleic acid, sugars from the 5' end m3 r94 m3, linkages s3 o93 s3 (s phosphorothioate, o phosphodiester), T or U not given here) guide: CCGCCUGCCAGCGCCUGGCGGUUUUAGAGCUAGAAAUAGCAAGUUAAAAUAAGGCUAGUCCGUUAUCAACUUGAAAAAGUGGCACCGAGUCGGUGCUUUU",0.06%,1.73%,3.49%,0.02%,0.55%,4.55%
"GA247: PCSK9 gRNA; protospacer CCTCGCCAGGCGCTGGCAGG (SEQ ID NO: 240) (nucleic acid, sugars from the 5' end m3 r94 m3, linkages s3 o93 s3 (s phosphorothioate, o phosphodiester), T or U not given here) guide: CCUCGCCAGGCGCUGGCAGGGUUUUAGAGCUAGAAAUAGCAAGUUAAAAUAAGGCUAGUCCGUUAUCAACUUGAAAAAGUGGCACCGAGUCGGUGCUUUU",0.25%,0.17%,6.76%,0.71%,2.62%,11.48%
"GA164: PCSK9 gRNA; protospacer GTCCTCGTCCTCCTGCGCAC (SEQ ID NO: 158) (nucleic acid, sugars from the 5' end m3 r94 m3, linkages s3 o93 s3 (s phosphorothioate, o phosphodiester), T or U not given here) guide: GUCCUCGUCCUCCUGCGCACGUUUUAGAGCUAGAAAUAGCAAGUUAAAAUAAGGCUAGUCCGUUAUCAACUUGAAAAAGUGGCACCGAGUCGGUGCUUUU",2.68%,11.12%,25.77%,2.75%,13.96%,34.89%
"GA167: PCSK9 gRNA; protospacer TCAGCTCCAGGCGGTCCTGG (SEQ ID NO: 161) (nucleic acid, sugars from the 5' end m3 r94 m3, linkages s3 o93 s3 (s phosphorothioate, o phosphodiester), T or U not given here) guide: UCAGCUCCAGGCGGUCCUGGGUUUUAGAGCUAGAAAUAGCAAGUUAAAAUAAGGCUAGUCCGUUAUCAACUUGAAAAAGUGGCACCGAGUCGGUGCUUUU",8.2%,25.87%,53.71%,11.98%,35.98%,66.07%
"GA240: PCSK9 gRNA; protospacer TGCCAGCGCCTGGCGAGGGC (SEQ ID NO: 233) (nucleic acid, sugars from the 5' end m3 r94 m3, linkages s3 o93 s3 (s phosphorothioate, o phosphodiester), T or U not given here) guide: UGCCAGCGCCUGGCGAGGGCGUUUUAGAGCUAGAAAUAGCAAGUUAAAAUAAGGCUAGUCCGUUAUCAACUUGAAAAAGUGGCACCGAGUCGGUGCUUUU",1.05%,0.24%,7.94%,0.52%,1.9%,10.62%
"GA245: PCSK9 gRNA; protospacer GTGCTGCTGCCCCTGGCGGG (SEQ ID NO: 238) (nucleic acid, sugars from the 5' end m3 r94 m3, linkages s3 o93 s3 (s phosphorothioate, o phosphodiester), T or U not given here) guide: GUGCUGCUGCCCCUGGCGGGGUUUUAGAGCUAGAAAUAGCAAGUUAAAAUAAGGCUAGUCCGUUAUCAACUUGAAAAAGUGGCACCGAGUCGGUGCUUUU",1.68%,2.97%,2.9%,0.19%,0.88%,7.07%
"GA163: PCSK9 gRNA; protospacer CGTCCTCGTCCTCCTGCGCA (SEQ ID NO: 157) (nucleic acid, sugars from the 5' end m3 r94 m3, linkages s3 o93 s3 (s phosphorothioate, o phosphodiester), T or U not given here) guide: CGUCCUCGUCCUCCUGCGCAGUUUUAGAGCUAGAAAUAGCAAGUUAAAAUAAGGCUAGUCCGUUAUCAACUUGAAAAAGUGGCACCGAGUCGGUGCUUUU",2.31%,9.2%,29.32%,5.99%,17.69%,49.50%
"GA168: PCSK9 gRNA; protospacer CTTGGCGCAGCGGTGGAAGG (SEQ ID NO: 162) (nucleic acid, sugars from the 5' end m3 r94 m3, linkages s3 o93 s3 (s phosphorothioate, o phosphodiester), T or U not given here) guide: CUUGGCGCAGCGGUGGAAGGGUUUUAGAGCUAGAAAUAGCAAGUUAAAAUAAGGCUAGUCCGUUAUCAACUUGAAAAAGUGGCACCGAGUCGGUGCUUUU",,25.77%,54.99%,4.75%,15.90%,41.49%
